{"source": "patent US6835382B2", "about": "“Ii peptide therapeutics to enhance antigen presentation” (University of Massachusetts, priority 1996, dated 2004)", "target": "T1, murine E^d MHC class II allele (Mus musculus, UniProt P01904+P01915)", "T1 sequence (P01904 26-255)": "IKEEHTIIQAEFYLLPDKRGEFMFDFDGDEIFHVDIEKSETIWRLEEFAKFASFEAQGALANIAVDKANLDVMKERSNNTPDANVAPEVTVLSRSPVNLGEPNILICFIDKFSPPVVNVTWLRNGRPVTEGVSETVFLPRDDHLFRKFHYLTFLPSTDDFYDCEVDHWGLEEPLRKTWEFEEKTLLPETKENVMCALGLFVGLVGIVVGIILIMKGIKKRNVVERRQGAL", "T1 sequence (P01915 27-264 limits assumed)": "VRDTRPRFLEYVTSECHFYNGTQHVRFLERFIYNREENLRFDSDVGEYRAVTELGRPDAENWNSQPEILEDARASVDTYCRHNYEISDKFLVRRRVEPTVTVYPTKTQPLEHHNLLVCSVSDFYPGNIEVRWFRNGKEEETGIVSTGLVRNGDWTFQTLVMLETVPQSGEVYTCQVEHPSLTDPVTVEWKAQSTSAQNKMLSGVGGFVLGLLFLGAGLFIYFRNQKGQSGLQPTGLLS", "assay": "processed antigen assay, E^d allele (APC pulsed with native HEL)", "type": "cell-based", "parameters": "The A20 and CH27 B cell lymphoma lines express H-2^d and H-2^k alleles, respectively; endogenous in cells; host or cells: A20 B cell lymphoma (mitomycin C-treated or paraformaldehyde-fixed)", "settings": "AE peptide 64 μM; for T cell response relative to baseline (None = 1.0), 5 μM HEL E^d, first value / T cell response relative to baseline (None = 1.0), 5 μM HEL E^d, second value / T cell response relative to baseline (None = 1.0), 10 μM HEL E^d, first value / T cell response relative to baseline (None = 1.0), 10 μM HEL E^d, second value / T cell response relative to baseline (None = 1.0), 20 μM HEL E^d, first value / T cell response relative to baseline (None = 1.0), 20 μM HEL E^d, second value: Table 29; for T cell response relative to baseline (None = 1.0), 5 μM HEL E^d, first value / T cell response relative to baseline (None = 1.0), 5 μM HEL E^d, second value: native HEL prepulse 5 μM; for T cell response relative to baseline (None = 1.0), 5 μM HEL E^d, first value / T cell response relative to baseline (None = 1.0), 10 μM HEL E^d, first value / T cell response relative to baseline (None = 1.0), 20 μM HEL E^d, first value: supernatant dilution 1:4 (first value); for T cell response relative to baseline (None = 1.0), 5 μM HEL E^d, second value / T cell response relative to baseline (None = 1.0), 10 μM HEL E^d, second value / T cell response relative to baseline (None = 1.0), 20 μM HEL E^d, second value: supernatant dilution 1:8 (second value); for T cell response relative to baseline (None = 1.00), E^d: Table 31; for Activity in processed antigen assay, E^d (baseline = 1.0): Table 34, native HEL 10 μM prepulse, supernatant 1:8", "method": "In a third type of assay, the “processed antigen assay”, certain of the AE101 series of peptides inhibit stimulation of specific T cell hybridomas by antigenic peptides which are derived from the endogenous processing of a native protein antigen. This assay, which is related to the peptide prepulse assay, is performed by incubating APC with native protein antigen for 8 h, after which the pulsed APC are washed and treated with mitomycin C. Those pulsed APC are then combined with AE101 series peptides and T cell hybridomas and are incubated for 24 h. After that incubation, an aliquot of the culture supernatant is transferred to a second culture to measure T cell stimulation, as reflected in the effect of released interleukins on the growth of an interleukin-dependent, indicator cell line. During the 8 h incubation with native protein antigen, the protein antigen is taken into the APC. The native protein enters the processing pathway within the APC, where it is enzymatically cleaved to peptide fragments. Those peptide fragments with high affinity for the particular MHC class II molecules produced by the APC form antigenic peptide/MHC class II complexes which are transported to the cell surface. At the cell surface, the MHC class II molecules are contacted by the AE101 peptides, which cause the release of the antigenic peptide by the same mechanism proposed for the “peptide prepulse” assay above.\nThe “processed antigen assay” was carried out under essentially the same conditions as the “peptide prepulse assay”, with the following modifications. Untreated APC were incubated at 1×10^6/mL in 24-well plates (1 mL/well) with native protein antigen for 8 h. Following that incubation, the pulsed APC were washed, treated with mitomycin C, and washed again. AE101 series peptide was added at 64 μM, 16 μM, 4 μM, and 1 μM concentrations for 24 h in the presence of the T cell hybridoma specific for the antigenic peptide. Interleukin release from these cultures was measured by proliferation of HT-2 cells to interleukins in supernatants transferred from the primary culture. The baseline T cell response was measured by culturing T hybridoma cells with the native antigen-prepulsed APC in the absence of AE101 series peptides.\nThe “processed antigen assay” was carried out under essentially the same conditions as the “peptide prepulse” assay, with the following modifications. Untreated APC were incubated at 1×10^6/mL in 24-well plates (1 mL/well) with native protein antigen for 8 h. Following incubation, the pulsed APC were washed, treated with mitomycin C, and were washed again. The assay conditions were then as described for “peptide prepulse” above. The baseline T cell response was measured by culturing T hybridoma cells with the native antigen-prepulsed APC in the absence of AE101 peptides.\nTable 2.9: Activities of substitution series at Leucine^80 in AE114 in a processed antigen assay. […] The results in this assay constitute, relatively, a mirror image of the result in the simultaneous assay (Example 1, Table 7) and parallel those of the antigenic peptide prepulse assay (Example 5, Table 24). Untreated APC were incubated with native HEL, instead of antigenic peptide, for 8 h. After incubation, the pulsed cells were washed and mitomycin C treated before being cocultured with AE-peptides and T cell hybridomas. Wells containing only T cells and native HEL-prepulsed APC were used to determine the Baseline response, or 1, in the absence of AE peptides. The concentration of AE peptide used was 64 μM for these assays. The supernatant dilutions used in the HT-2 cell assay were 1:4 (first value) and 1:8 (second value).", "key": {"[1]": {"settings": "Table 30, native HEL prepulse 10 μM, supernatant dilution 1:8"}, "[2]": {"settings": "native HEL prepulse 10 μM, supernatant dilution 1:4"}, "[3]": {"settings": "Table 32, native HEL prepulse 20 μM, supernatant dilution 1:4"}, "[4]": {"settings": "Table 33, native HEL prepulse 10 μM, supernatant dilution 1:8"}}, "note": "Non-standard residues stand in square brackets, D forms with d. hArg = N=C(N)NCCCC[C@H](N)C(=O)O; Cit = NC(=O)NCCC[C@H](N)C(=O)O; Orn = NCCC[C@H](N)C(=O)O"}
{"substance": "Ac-LRMK Q PK-NH2 (Ac-LRMKQPK-NH2) [AE233]", "values": [{"measurement": "T cell response relative to baseline (None = 1.0), 5 μM HEL E^d, first value", "result": "0.48,"}, {"measurement": "T cell response relative to baseline (None = 1.0), 5 μM HEL E^d, second value", "result": 0.36}, {"measurement": "T cell response relative to baseline (None = 1.0), 10 μM HEL E^d, first value", "setting": "native HEL prepulse 10 μM", "result": "0.53,"}, {"measurement": "T cell response relative to baseline (None = 1.0), 10 μM HEL E^d, second value", "setting": "native HEL prepulse 10 μM", "result": 0.47}, {"measurement": "T cell response relative to baseline (None = 1.0), 20 μM HEL E^d, first value", "setting": "native HEL prepulse 20 μM", "result": "0.74,"}, {"measurement": "T cell response relative to baseline (None = 1.0), 20 μM HEL E^d, second value", "setting": "native HEL prepulse 20 μM", "result": 0.68}]}
{"substance": "Ac-LRMK Y PK-NH2 (Ac-LRMKYPK-NH2; not fully specified; printed as Ac-LRMK Y PK-NH2) [AE235]", "values": [{"measurement": "T cell response relative to baseline (None = 1.0), 5 μM HEL E^d, first value", "result": "0.33,"}, {"measurement": "T cell response relative to baseline (None = 1.0), 5 μM HEL E^d, second value", "result": 0.38}, {"measurement": "T cell response relative to baseline (None = 1.0), 10 μM HEL E^d, first value", "setting": "native HEL prepulse 10 μM", "result": "0.42,"}, {"measurement": "T cell response relative to baseline (None = 1.0), 10 μM HEL E^d, second value", "setting": "native HEL prepulse 10 μM", "result": 0.39}, {"measurement": "T cell response relative to baseline (None = 1.0), 20 μM HEL E^d, first value", "setting": "native HEL prepulse 20 μM", "result": "0.71,"}, {"measurement": "T cell response relative to baseline (None = 1.0), 20 μM HEL E^d, second value", "setting": "native HEL prepulse 20 μM", "result": 0.56}, {"measurement": "T cell response relative to baseline (None = 1.0), E^d", "setting": "[1]", "result": 0.19}, {"measurement": "T cell response relative to baseline (None = 1.00), E^d", "setting": "[2]", "result": 0.53}, {"measurement": "T cell response relative to baseline (None = 1.0), E^d", "setting": "[3]", "result": 0.46}, {"measurement": "T cell response relative to baseline (None = 1.0), E^d", "setting": "[4]", "result": 0.45}, {"measurement": "Activity in processed antigen assay, E^d (baseline = 1.0)", "result": 0.19}]}
{"substance": "Ac-LRMK l PK-NH2 [AE164]", "values": [{"measurement": "T cell response relative to baseline (None = 1.0), E^d", "setting": "[1]", "result": 0.64}]}
{"substance": "Ac-LRMKLP F-NH2 (Ac-LRMKLPF-NH2) [AE248]", "values": [{"measurement": "T cell response relative to baseline (None = 1.00), E^d", "setting": "[2]", "result": 0.30}]}
{"substance": "Ac-LRMKLP N-NH2 (Ac-LRMKLPN-NH2) [AE246]", "values": [{"measurement": "T cell response relative to baseline (None = 1.0), E^d", "setting": "[3]", "result": 0.72}]}
{"substance": "Ac-LRMKLP k-NH2 [AE166]", "values": [{"measurement": "T cell response relative to baseline (None = 1.0), E^d", "setting": "[1]", "result": 0.36}]}
{"substance": "Ac-LRMKLPK-NH2 [AE114]", "values": [{"measurement": "T cell response relative to baseline (None = 1.0), 5 μM HEL E^d, first value", "result": "0.23,"}, {"measurement": "T cell response relative to baseline (None = 1.0), 5 μM HEL E^d, second value", "result": 0.37}, {"measurement": "T cell response relative to baseline (None = 1.0), 10 μM HEL E^d, first value", "setting": "native HEL prepulse 10 μM", "result": "0.29,"}, {"measurement": "T cell response relative to baseline (None = 1.0), 10 μM HEL E^d, second value", "setting": "native HEL prepulse 10 μM", "result": 0.28}, {"measurement": "T cell response relative to baseline (None = 1.0), 20 μM HEL E^d, first value", "setting": "native HEL prepulse 20 μM", "result": "0.53,"}, {"measurement": "T cell response relative to baseline (None = 1.0), 20 μM HEL E^d, second value", "setting": "native HEL prepulse 20 μM", "result": 0.44}, {"measurement": "T cell response relative to baseline (None = 1.0), E^d", "setting": "[1]", "result": 0.22}, {"measurement": "T cell response relative to baseline (None = 1.00), E^d", "setting": "[2]", "result": 0.49}, {"measurement": "T cell response relative to baseline (None = 1.0), E^d", "setting": "[3]", "result": 0.40}, {"measurement": "T cell response relative to baseline (None = 1.0), E^d", "setting": "[4]", "result": 0.37}, {"measurement": "Activity in processed antigen assay, E^d (baseline = 1.0)", "result": 0.22}]}
{"substance": "Ac-LRMKLP[Cit]-NH2 [AE241]", "values": [{"measurement": "T cell response relative to baseline (None = 1.0), E^d", "setting": "[3]", "result": 0.63}]}
{"substance": "Ac-LRMK[Orn]PK-NH2 [AE225]", "values": [{"measurement": "T cell response relative to baseline (None = 1.0), 5 μM HEL E^d, first value", "result": "0.26,"}, {"measurement": "T cell response relative to baseline (None = 1.0), 5 μM HEL E^d, second value", "result": 0.38}, {"measurement": "T cell response relative to baseline (None = 1.0), 10 μM HEL E^d, first value", "setting": "native HEL prepulse 10 μM", "result": "0.32,"}, {"measurement": "T cell response relative to baseline (None = 1.0), 10 μM HEL E^d, second value", "setting": "native HEL prepulse 10 μM", "result": 0.30}, {"measurement": "T cell response relative to baseline (None = 1.0), 20 μM HEL E^d, first value", "setting": "native HEL prepulse 20 μM", "result": "0.59,"}, {"measurement": "T cell response relative to baseline (None = 1.0), 20 μM HEL E^d, second value", "setting": "native HEL prepulse 20 μM", "result": 0.48}]}
{"substance": "Ac-LRNKNPF-NH2 [AE348]", "values": [{"measurement": "T cell response relative to baseline (None = 1.00), E^d", "setting": "[2]", "result": 0.81}]}
{"substance": "Ac-LRNKNPK-NH2 [AE349]", "values": [{"measurement": "T cell response relative to baseline (None = 1.00), E^d", "setting": "[2]", "result": 0.64}]}
{"substance": "Ac-LR[Orn]KLPK-NH2 [AE195]", "values": [{"measurement": "T cell response relative to baseline (None = 1.00), E^d", "setting": "[2]", "result": 0.31}]}
{"substance": "Ac-L[Cit]MKNPK-NH2 [AE342]", "values": [{"measurement": "T cell response relative to baseline (None = 1.00), E^d", "setting": "[2]", "result": 0.64}]}
{"substance": "Ac-L[Cit]NKLPK-NH2 [AE343]", "values": [{"measurement": "T cell response relative to baseline (None = 1.00), E^d", "setting": "[2]", "result": 0.69}]}
{"substance": "Ac-Y K MKLPKSAK-NH2 [AE134]", "values": [{"measurement": "T cell response relative to baseline (None = 1.0), E^d", "setting": "[3]", "result": 0.50}]}
{"substance": "Ac-Y[Cit]MKLPKSAK-NH2 [AE131]", "values": [{"measurement": "T cell response relative to baseline (None = 1.00), E^d", "setting": "[2]", "result": 0.49}]}
{"substance": "Ac-Y[hArg]MKLPKSAK-NH2 [AE132]", "values": [{"measurement": "T cell response relative to baseline (None = 1.0), E^d", "setting": "[3]", "result": 0.48}]}
